The results in this text go back to patent publication US20110200528A1 (GOVERNMENT OF THE UNITED STATES OF AMERICA, published 2011).

OG = Oregon Green 488 (6-isomer carboxylic acid) on Lys side chain

Assay [1] deals with aminopeptidase N isoform CD13 (APN/CD13) on HT-1080 human fibrosarcoma cells (human) (UniProt P15144). Briefly: flow cytometry on HT-1080 cells.
Assay [2] has as its target T1, aminopeptidase N isoform CD13 (APN/CD13) on HT-1080 human fibrosarcoma cells (human, UniProt P15144 2-967).
T1 construct: whole, on cells; also called CD13/APN marker
Briefly: flow cytometry on CD13-positive HT-1080 cells. How it is done: To determine the half maximal effective concentration (EC₅₀) of cK(OG)NGRE (SEQ ID NO:2) and low temperature sensitive liposomes targeted with 5 mol % DSPE-PEG-cNGR, flow cytometry was performed according to standard procedures with HT-1080 cells. Approximately 94% of the HT-1080 cells were positive for the WM15 antibody indicating the presence of CD13 on these cells.

The target in assay [3] is aminopeptidase N isoform CD13 (APN/CD13) on HT-1080 human fibrosarcoma cells (human) (UniProt P15144). Briefly: flow cytometry on CD13-positive HT-1080 cells; reference: liposome with a linear peptide.

Sequence of aminopeptidase N isoform CD13 (APN/CD13) on HT-1080 human fibrosarcoma cells (human) (P15144 2-967): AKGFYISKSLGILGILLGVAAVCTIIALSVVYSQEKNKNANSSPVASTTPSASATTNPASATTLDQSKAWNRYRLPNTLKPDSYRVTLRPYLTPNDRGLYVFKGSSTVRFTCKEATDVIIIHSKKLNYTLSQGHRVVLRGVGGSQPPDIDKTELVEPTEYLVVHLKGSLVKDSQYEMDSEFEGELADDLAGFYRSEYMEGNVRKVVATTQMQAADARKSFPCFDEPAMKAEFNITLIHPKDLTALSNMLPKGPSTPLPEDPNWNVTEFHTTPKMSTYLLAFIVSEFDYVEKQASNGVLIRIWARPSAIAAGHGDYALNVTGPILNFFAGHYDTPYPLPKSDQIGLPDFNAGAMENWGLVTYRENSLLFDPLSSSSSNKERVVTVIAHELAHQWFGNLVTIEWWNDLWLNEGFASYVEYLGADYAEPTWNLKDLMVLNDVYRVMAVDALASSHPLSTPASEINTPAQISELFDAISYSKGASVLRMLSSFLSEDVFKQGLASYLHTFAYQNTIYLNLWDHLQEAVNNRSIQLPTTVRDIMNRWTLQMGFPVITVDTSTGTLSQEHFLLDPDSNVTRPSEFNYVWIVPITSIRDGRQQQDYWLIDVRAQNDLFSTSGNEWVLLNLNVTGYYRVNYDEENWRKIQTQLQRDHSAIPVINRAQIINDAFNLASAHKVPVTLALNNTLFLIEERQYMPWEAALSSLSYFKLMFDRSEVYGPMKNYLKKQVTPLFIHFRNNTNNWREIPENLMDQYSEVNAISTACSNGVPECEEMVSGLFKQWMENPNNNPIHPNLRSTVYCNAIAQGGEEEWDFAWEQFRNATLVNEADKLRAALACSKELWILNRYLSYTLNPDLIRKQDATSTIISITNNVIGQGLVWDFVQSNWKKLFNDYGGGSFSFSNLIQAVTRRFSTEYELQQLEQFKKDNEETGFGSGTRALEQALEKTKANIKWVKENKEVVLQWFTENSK
T1 sequence (P15144 2-967): as above

In assay [1], “Anti-CD13 monoclonal antibody (WM15, Alexa Fluor 488-conjugated)” gave a percent of cells positive of 94%.

B1: linear form of an NGR-containing peptide (SEQ ID NO:4) (peptide)
peptide: KNGRE
notes: also called linear NGR peptide; free linear NGR peptide
Regarding B1, in assay [2], the EC50 worked out at 220 µM.
Still for that read-out and setting: to cyclo(K(OG)NGRE) (also: Glu side chain coupled to Rink amide resin (side-chain amide), also called compound 6; NGR-OG agent) [cyclic cK(OG)NGRE (SEQ ID NO:2)] belongs 61 µM.

B2: low temperature sensitive liposomes targeted with 5 mol % DSPE-PEG-cNGR (peptide)
peptide: KNGRE
modifications: cyclized cKNGRE; conjugated to DSPE-PEG2000CH2COOH (DSPE-PEG-cNGR conjugate 7) and built into a liposome (DPPC:MSPC:DSPE-PEG-cNGR 86.3:9.7:5)
B2: in assay [3], the fold lower binding concentration against the liposome with a linear peptide amounted to 3.5 fold.
